Assay results from US20170335317.

How the values were obtained:
[1] = target: ATRX full length (UniProt P46100); experiment: filter
[2] = target: ATRX full length (UniProt P46100); experiment: FP

UniProt P46100, sequence (P46100 whole entry): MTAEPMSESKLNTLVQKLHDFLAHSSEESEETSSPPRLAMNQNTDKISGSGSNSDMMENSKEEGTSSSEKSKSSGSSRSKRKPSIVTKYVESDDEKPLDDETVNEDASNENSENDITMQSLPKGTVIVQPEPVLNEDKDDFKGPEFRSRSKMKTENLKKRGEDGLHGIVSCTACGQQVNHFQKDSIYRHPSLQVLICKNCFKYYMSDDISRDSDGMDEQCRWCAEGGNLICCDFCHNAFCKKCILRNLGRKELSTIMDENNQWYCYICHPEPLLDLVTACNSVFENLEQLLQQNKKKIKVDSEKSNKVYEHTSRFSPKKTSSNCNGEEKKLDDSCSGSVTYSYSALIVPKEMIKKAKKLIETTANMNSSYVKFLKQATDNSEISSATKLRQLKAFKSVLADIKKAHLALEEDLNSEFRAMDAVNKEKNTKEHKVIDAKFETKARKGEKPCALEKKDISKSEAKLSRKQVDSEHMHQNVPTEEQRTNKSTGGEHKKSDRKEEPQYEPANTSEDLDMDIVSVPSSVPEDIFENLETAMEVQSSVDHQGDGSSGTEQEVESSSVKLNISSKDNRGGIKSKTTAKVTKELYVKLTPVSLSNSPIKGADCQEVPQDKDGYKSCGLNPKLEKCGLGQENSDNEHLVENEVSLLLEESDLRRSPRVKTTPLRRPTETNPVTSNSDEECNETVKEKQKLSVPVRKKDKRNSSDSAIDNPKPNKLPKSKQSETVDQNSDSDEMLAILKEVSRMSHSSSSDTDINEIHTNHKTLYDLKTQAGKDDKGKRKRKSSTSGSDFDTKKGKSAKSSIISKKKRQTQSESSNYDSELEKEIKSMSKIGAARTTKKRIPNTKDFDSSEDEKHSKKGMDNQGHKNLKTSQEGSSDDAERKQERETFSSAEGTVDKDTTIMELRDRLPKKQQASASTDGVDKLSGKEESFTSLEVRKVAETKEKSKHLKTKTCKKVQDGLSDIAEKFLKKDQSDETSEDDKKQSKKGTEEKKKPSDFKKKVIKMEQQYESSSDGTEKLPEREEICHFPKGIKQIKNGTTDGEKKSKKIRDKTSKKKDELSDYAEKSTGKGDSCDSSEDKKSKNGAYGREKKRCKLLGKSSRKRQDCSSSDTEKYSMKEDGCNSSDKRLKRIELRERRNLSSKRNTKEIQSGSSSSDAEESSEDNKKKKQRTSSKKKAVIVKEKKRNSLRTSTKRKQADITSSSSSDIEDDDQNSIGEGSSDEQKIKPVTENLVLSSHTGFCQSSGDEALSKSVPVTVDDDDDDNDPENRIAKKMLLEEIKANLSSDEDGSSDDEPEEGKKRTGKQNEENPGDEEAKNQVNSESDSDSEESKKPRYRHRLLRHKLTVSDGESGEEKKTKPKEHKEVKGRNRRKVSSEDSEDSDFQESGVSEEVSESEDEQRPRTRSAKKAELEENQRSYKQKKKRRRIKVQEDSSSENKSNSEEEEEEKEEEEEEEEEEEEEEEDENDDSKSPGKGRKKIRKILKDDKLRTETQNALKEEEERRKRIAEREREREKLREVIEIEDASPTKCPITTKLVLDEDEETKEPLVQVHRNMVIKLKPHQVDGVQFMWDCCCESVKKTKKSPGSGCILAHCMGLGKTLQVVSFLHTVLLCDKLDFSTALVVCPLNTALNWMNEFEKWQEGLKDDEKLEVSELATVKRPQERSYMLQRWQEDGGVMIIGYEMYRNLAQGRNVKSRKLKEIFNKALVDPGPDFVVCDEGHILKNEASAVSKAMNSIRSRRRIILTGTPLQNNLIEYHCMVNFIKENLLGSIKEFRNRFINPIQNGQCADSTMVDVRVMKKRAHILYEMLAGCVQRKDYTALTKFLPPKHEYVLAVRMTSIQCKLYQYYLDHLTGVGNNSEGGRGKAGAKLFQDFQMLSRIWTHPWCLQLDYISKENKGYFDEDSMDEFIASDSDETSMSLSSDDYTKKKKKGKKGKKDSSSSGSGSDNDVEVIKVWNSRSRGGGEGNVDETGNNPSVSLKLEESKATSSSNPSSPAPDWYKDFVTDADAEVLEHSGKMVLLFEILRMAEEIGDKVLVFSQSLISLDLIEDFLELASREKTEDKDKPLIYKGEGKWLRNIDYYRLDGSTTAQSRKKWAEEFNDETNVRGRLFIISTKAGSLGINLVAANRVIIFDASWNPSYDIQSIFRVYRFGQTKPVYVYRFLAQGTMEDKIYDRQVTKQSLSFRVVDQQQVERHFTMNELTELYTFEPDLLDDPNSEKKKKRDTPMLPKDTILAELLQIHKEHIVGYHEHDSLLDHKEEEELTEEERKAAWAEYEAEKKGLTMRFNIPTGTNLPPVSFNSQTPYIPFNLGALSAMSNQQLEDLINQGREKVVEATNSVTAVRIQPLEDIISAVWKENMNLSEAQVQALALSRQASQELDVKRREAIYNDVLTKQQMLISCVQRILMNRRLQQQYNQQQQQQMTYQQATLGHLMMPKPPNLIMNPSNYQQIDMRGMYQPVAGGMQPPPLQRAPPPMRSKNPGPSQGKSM

## Hotair dsDNA
[1]; Kd>>200 nM
  Kd: > 200 nM

## MBP dsDNA
[1]; Kd>>200 nM
  Kd: > 200 nM

## MBP mRNA first 300 nt
[1]; Kd>>200 nM
  Kd: > 200 nM

## P4-P6 ribozyme RNA
[1]; Kd>>200 nM
  Kd: > 200 nM

## Repeat A I-II RNA
[1]; +/-0.89, double-filter binding
  Kd: 9.96 nM

## Repeat A III-IV RNA
[1]; +/-3.35, double-filter binding
  Kd: 17.9 nM

## Repeat A dsDNA
[1]; unit not printed with value, nM by context
  Kd: 15.7 nM

## Repeat A ssDNA
[1]; could not bind well, Kd>>200 nM
  Kd: > 200 nM

## Xist Repeat A I-IV RNA
[2]
  Kd: 5.41 nM
